# Patent US10919943B2, “Mutant proteins enabling agrochemical control of plant gene expression” (The Regents of the University of California, priority 2016, dated 2021)
# Where a chain is given by its changes, count along the chain named. Numbers in names are those of the source.
# B1: L87A: PYR1 mutant (protein, UniProt O49686 1-191, looked up, variant L87A)
# Abscisic acid receptor PYR1: MPSELTPEERSELKNSIAEFHTYQLDPGSCSSLHAQRIHAPPELVWSIVRRFDKPQTYKHFIKSCSVEQNFEMRVGCTRDVIVISGAPANTSTERLDILDDERRVTGFSIIGGEHRLTNYKSVTTVHRFEKENRIWTVVLESYVVDMPEGNSEDDTRMFADTVVKLNLQKLATVAEAMARNSGDGSGSQVT
# B2: P88Q: PYR1 mutant (protein, UniProt O49686 1-191, looked up, variant P88Q)
# Abscisic acid receptor PYR1: B1 Abscisic acid receptor PYR1 with A87L, P88Q
# B3: A89Q: PYR1 mutant (protein, UniProt O49686 1-191, looked up, variant A89Q)
# Abscisic acid receptor PYR1: B1 Abscisic acid receptor PYR1 with A87L, A89Q
# B4: A89L: PYR1 mutant (protein, UniProt O49686 1-191, looked up, variant A89L)
# Abscisic acid receptor PYR1: B1 Abscisic acid receptor PYR1 with A87L, A89L
# B5: L87Y: PYR1 mutant (protein, UniProt O49686 1-191, looked up, variant L87Y)
# Abscisic acid receptor PYR1: B1 Abscisic acid receptor PYR1 with A87Y
# B6: L87D: PYR1 mutant (protein, UniProt O49686 1-191, looked up, variant L87D)
# Abscisic acid receptor PYR1: B1 Abscisic acid receptor PYR1 with A87D
# B7: L87W: PYR1 mutant (protein, UniProt O49686 1-191, looked up, variant L87W)
# Abscisic acid receptor PYR1: B1 Abscisic acid receptor PYR1 with A87W
# B8: P88M: PYR1 mutant (protein, UniProt O49686 1-191, looked up, variant P88M)
# Abscisic acid receptor PYR1: B1 Abscisic acid receptor PYR1 with A87L, P88M
# B9: L87E: PYR1 mutant (protein, UniProt O49686 1-191, looked up, variant L87E)
# Abscisic acid receptor PYR1: B1 Abscisic acid receptor PYR1 with A87E
# B10: P88G: PYR1 mutant (protein, UniProt O49686 1-191, looked up, variant P88G)
# Abscisic acid receptor PYR1: B1 Abscisic acid receptor PYR1 with A87L, P88G
# B11: P88C: PYR1 mutant (protein, UniProt O49686 1-191, looked up, variant P88C)
# Abscisic acid receptor PYR1: B1 Abscisic acid receptor PYR1 with A87L, P88C
# B12: A89T: PYR1 mutant (protein, UniProt O49686 1-191, looked up, variant A89T)
# Abscisic acid receptor PYR1: B1 Abscisic acid receptor PYR1 with A87L, A89T
# B13: L87G: PYR1 mutant (protein, UniProt O49686 1-191, looked up, variant L87G)
# Abscisic acid receptor PYR1: B1 Abscisic acid receptor PYR1 with A87G
# B14: P88L: PYR1 mutant (protein, UniProt O49686 1-191, looked up, variant P88L)
# Abscisic acid receptor PYR1: B1 Abscisic acid receptor PYR1 with A87L, P88L
# B15: P88K: PYR1 mutant (protein, UniProt O49686 1-191, looked up, variant P88K)
# Abscisic acid receptor PYR1: B1 Abscisic acid receptor PYR1 with A87L, P88K
# B16: A89N: PYR1 mutant (protein, UniProt O49686 1-191, looked up, variant A89N)
# Abscisic acid receptor PYR1: B1 Abscisic acid receptor PYR1 with A87L, A89N
# B17: A89S: PYR1 mutant (protein, UniProt O49686 1-191, looked up, variant A89S)
# Abscisic acid receptor PYR1: B1 Abscisic acid receptor PYR1 with A87L, A89S
# B18: L87Q: PYR1 mutant (protein, UniProt O49686 1-191, looked up, variant L87Q)
# Abscisic acid receptor PYR1: B1 Abscisic acid receptor PYR1 with A87Q
# B19: P88T: PYR1 mutant (protein, UniProt O49686 1-191, looked up, variant P88T)
# Abscisic acid receptor PYR1: B1 Abscisic acid receptor PYR1 with A87L, P88T
# B20: P88Y: PYR1 mutant (protein, UniProt O49686 1-191, looked up, variant P88Y)
# Abscisic acid receptor PYR1: B1 Abscisic acid receptor PYR1 with A87L, P88Y
# B21: L87H: PYR1 mutant (protein, UniProt O49686 1-191, looked up, variant L87H)
# Abscisic acid receptor PYR1: B1 Abscisic acid receptor PYR1 with A87H
# B22: P88R: PYR1 mutant (protein, UniProt O49686 1-191, looked up, variant P88R)
# Abscisic acid receptor PYR1: B1 Abscisic acid receptor PYR1 with A87L, P88R
# B23: P88H: PYR1 mutant (protein, UniProt O49686 1-191, looked up, variant P88H)
# Abscisic acid receptor PYR1: B1 Abscisic acid receptor PYR1 with A87L, P88H
# B24: A89R: PYR1 mutant (protein, UniProt O49686 1-191, looked up, variant A89R)
# Abscisic acid receptor PYR1: B1 Abscisic acid receptor PYR1 with A87L, A89R
# B25: A89V: PYR1 mutant (protein, UniProt O49686 1-191, looked up, variant A89V)
# Abscisic acid receptor PYR1: B1 Abscisic acid receptor PYR1 with A87L, A89V
# B26: L87C: PYR1 mutant (protein, UniProt O49686 1-191, looked up, variant L87C)
# Abscisic acid receptor PYR1: B1 Abscisic acid receptor PYR1 with A87C
# B27: L87K: PYR1 mutant (protein, UniProt O49686 1-191, looked up, variant L87K)
# Abscisic acid receptor PYR1: B1 Abscisic acid receptor PYR1 with A87K
# B28: P88V: PYR1 mutant (protein, UniProt O49686 1-191, looked up, variant P88V)
# Abscisic acid receptor PYR1: B1 Abscisic acid receptor PYR1 with A87L, P88V
# B29: L87R: PYR1 mutant (protein, UniProt O49686 1-191, looked up, variant L87R)
# Abscisic acid receptor PYR1: B1 Abscisic acid receptor PYR1 with A87R
# B30: P88W: PYR1 mutant (protein, UniProt O49686 1-191, looked up, variant P88W)
# Abscisic acid receptor PYR1: B1 Abscisic acid receptor PYR1 with A87L, P88W
# B31: L87N: PYR1 mutant (protein, UniProt O49686 1-191, looked up, variant L87N)
# Abscisic acid receptor PYR1: B1 Abscisic acid receptor PYR1 with A87N
# B32: P88D: PYR1 mutant (protein, UniProt O49686 1-191, looked up, variant P88D)
# Abscisic acid receptor PYR1: B1 Abscisic acid receptor PYR1 with A87L, P88D
# B33: L87T: PYR1 mutant (protein, UniProt O49686 1-191, looked up, variant L87T)
# Abscisic acid receptor PYR1: B1 Abscisic acid receptor PYR1 with A87T
# B34: P88N: PYR1 mutant (protein, UniProt O49686 1-191, looked up, variant P88N)
# Abscisic acid receptor PYR1: B1 Abscisic acid receptor PYR1 with A87L, P88N
# B35: L87S: PYR1 mutant (protein, UniProt O49686 1-191, looked up, variant L87S)
# Abscisic acid receptor PYR1: B1 Abscisic acid receptor PYR1 with A87S
# B36: P88I: PYR1 mutant (protein, UniProt O49686 1-191, looked up, variant P88I)
# Abscisic acid receptor PYR1: B1 Abscisic acid receptor PYR1 with A87L, P88I
# B37: P88E: PYR1 mutant (protein, UniProt O49686 1-191, looked up, variant P88E)
# Abscisic acid receptor PYR1: B1 Abscisic acid receptor PYR1 with A87L, P88E
# B38: P88S: PYR1 mutant (protein, UniProt O49686 1-191, looked up, variant P88S)
# Abscisic acid receptor PYR1: B1 Abscisic acid receptor PYR1 with A87L, P88S
# B39: A89P: PYR1 mutant (protein, UniProt O49686 1-191, looked up, variant A89P)
# Abscisic acid receptor PYR1: B1 Abscisic acid receptor PYR1 with A87L, A89P
# B40: A89M: PYR1 mutant (protein, UniProt O49686 1-191, looked up, variant A89M)
# Abscisic acid receptor PYR1: B1 Abscisic acid receptor PYR1 with A87L, A89M
# B41: P88F: PYR1 mutant (protein, UniProt O49686 1-191, looked up, variant P88F)
# Abscisic acid receptor PYR1: B1 Abscisic acid receptor PYR1 with A87L, P88F
# Tested on: HAB1
# Test: Yeast two hybrid of pBD-PYR1 site saturation mutants with pACT-HAB1 on 10 μM ABA, β-galactosidase staining
# Assay type: cell-based, Arabidopsis
# Design: key: x: Mutations in PYR1 that disrupt ABA-induced binding to PYR1 to HAB1
# Conditions: S. cerevisiae Y190, 10 μM ABA; dead = lack of visible staining in comparison to wild type control
# Description: To systematically identify mutations in PYR1 that disrupt its binding to HAB1, we utilized a collection of saturating mutations that contain all possible single amino acid substitutions in 24 conserved interface residues involved in binding HAB1, which was previously constructed for the purpose of engineering constitutively active ABA receptor variants (Mosquna et al., 2011). The interface residues previously mutagenized in this collection are the following: H60, F61, I62, K63, I84, S85, G86, L87, P88, A89, H115, R116, L117, P148, G150, N151, D154, D155, T156, M158, F159, T162, L166, K170. This set was made by mutagenizing a pBD-PYR1 template that encodes a GAL4-DNA binding domain fusion to PYR1, which can be used to assess receptor-HAB1 binding in S. cerevisiae strains co-transformed with pACT-HAB1, which expresses a GAL4 activation domain fusion to HAB1. Mutant pBD-PYR1 clones from the collection are maintained in S. cerevisiae strain Y190 co-transformed with pACT-HAB1. The test strains were spotted onto agar plates containing synthetic dextrose dropout media lacking leucine and tryptophan [SD (-Leu, -Trp)] medium supplemented with 10 μM ABA. After incubating the test plates at 30° C. for two days, colonies were chloroform lysed and stained to reveal […] expression levels and “dead” mutants were defined by lack of visible staining in comparison to a wild type control. This effort defined 237 mutations that disrupt ABA-induced binding of PYR1 to HAB1 (Table 1). Premade yeast drop out supplements (Clontech) were utilized in this and other examples for media preparation, amino acids and other standard chemicals were purchased from Sigma-Aldrich (USA). The naturally occurring (+)-ABA isomer was used in all experiments and purchased from Biosynth Ag (Switzerland).
molecule,measurement,value
B1,Mutations in PYR1 that disrupt ABA-induced binding to PYR1 to HAB1,x
B2,Mutations in PYR1 that disrupt ABA-induced binding to PYR1 to HAB1,x
B3,Mutations in PYR1 that disrupt ABA-induced binding to PYR1 to HAB1,x
B4,Mutations in PYR1 that disrupt ABA-induced binding to PYR1 to HAB1,x
B5,Mutations in PYR1 that disrupt ABA-induced binding to PYR1 to HAB1,x
B6,Mutations in PYR1 that disrupt ABA-induced binding to PYR1 to HAB1,x
B7,Mutations in PYR1 that disrupt ABA-induced binding to PYR1 to HAB1,x
B8,Mutations in PYR1 that disrupt ABA-induced binding to PYR1 to HAB1,x
B9,Mutations in PYR1 that disrupt ABA-induced binding to PYR1 to HAB1,x
B10,Mutations in PYR1 that disrupt ABA-induced binding to PYR1 to HAB1,x
B11,Mutations in PYR1 that disrupt ABA-induced binding to PYR1 to HAB1,x
B12,Mutations in PYR1 that disrupt ABA-induced binding to PYR1 to HAB1,x
B13,Mutations in PYR1 that disrupt ABA-induced binding to PYR1 to HAB1,x
B14,Mutations in PYR1 that disrupt ABA-induced binding to PYR1 to HAB1,x
B15,Mutations in PYR1 that disrupt ABA-induced binding to PYR1 to HAB1,x
B16,Mutations in PYR1 that disrupt ABA-induced binding to PYR1 to HAB1,x
B17,Mutations in PYR1 that disrupt ABA-induced binding to PYR1 to HAB1,x
B18,Mutations in PYR1 that disrupt ABA-induced binding to PYR1 to HAB1,x
B19,Mutations in PYR1 that disrupt ABA-induced binding to PYR1 to HAB1,x
B20,Mutations in PYR1 that disrupt ABA-induced binding to PYR1 to HAB1,x
B21,Mutations in PYR1 that disrupt ABA-induced binding to PYR1 to HAB1,x
B22,Mutations in PYR1 that disrupt ABA-induced binding to PYR1 to HAB1,x
B23,Mutations in PYR1 that disrupt ABA-induced binding to PYR1 to HAB1,x
B24,Mutations in PYR1 that disrupt ABA-induced binding to PYR1 to HAB1,x
B25,Mutations in PYR1 that disrupt ABA-induced binding to PYR1 to HAB1,x
B26,Mutations in PYR1 that disrupt ABA-induced binding to PYR1 to HAB1,x
B27,Mutations in PYR1 that disrupt ABA-induced binding to PYR1 to HAB1,x
B28,Mutations in PYR1 that disrupt ABA-induced binding to PYR1 to HAB1,x
B29,Mutations in PYR1 that disrupt ABA-induced binding to PYR1 to HAB1,x
B30,Mutations in PYR1 that disrupt ABA-induced binding to PYR1 to HAB1,x
B31,Mutations in PYR1 that disrupt ABA-induced binding to PYR1 to HAB1,x
B32,Mutations in PYR1 that disrupt ABA-induced binding to PYR1 to HAB1,x
B33,Mutations in PYR1 that disrupt ABA-induced binding to PYR1 to HAB1,x
B34,Mutations in PYR1 that disrupt ABA-induced binding to PYR1 to HAB1,x
B35,Mutations in PYR1 that disrupt ABA-induced binding to PYR1 to HAB1,x
B36,Mutations in PYR1 that disrupt ABA-induced binding to PYR1 to HAB1,x
B37,Mutations in PYR1 that disrupt ABA-induced binding to PYR1 to HAB1,x
B38,Mutations in PYR1 that disrupt ABA-induced binding to PYR1 to HAB1,x
B39,Mutations in PYR1 that disrupt ABA-induced binding to PYR1 to HAB1,x
B40,Mutations in PYR1 that disrupt ABA-induced binding to PYR1 to HAB1,x
B41,Mutations in PYR1 that disrupt ABA-induced binding to PYR1 to HAB1,x
